The values that follow come from US20240158448A1 (University of Pennsylvania, published 2024).

Positions of bridges follow the written chain, without caps; N, C: chain ends. No end group written: not given here.

Common to all, as to test: cell-based or functional assay
Test [1] concerns the target human SIRPα expressed on cells (PMA-differentiated THP-1 macrophages; A549 cells) (human, UniProt P78324 31-504).
Test [2] has as its target T1, mouse SIRPα expressed on primary bone marrow derived macrophages (C57BL6/J) (mouse, UniProt P97797 32-513).
T1 sequence (looked up): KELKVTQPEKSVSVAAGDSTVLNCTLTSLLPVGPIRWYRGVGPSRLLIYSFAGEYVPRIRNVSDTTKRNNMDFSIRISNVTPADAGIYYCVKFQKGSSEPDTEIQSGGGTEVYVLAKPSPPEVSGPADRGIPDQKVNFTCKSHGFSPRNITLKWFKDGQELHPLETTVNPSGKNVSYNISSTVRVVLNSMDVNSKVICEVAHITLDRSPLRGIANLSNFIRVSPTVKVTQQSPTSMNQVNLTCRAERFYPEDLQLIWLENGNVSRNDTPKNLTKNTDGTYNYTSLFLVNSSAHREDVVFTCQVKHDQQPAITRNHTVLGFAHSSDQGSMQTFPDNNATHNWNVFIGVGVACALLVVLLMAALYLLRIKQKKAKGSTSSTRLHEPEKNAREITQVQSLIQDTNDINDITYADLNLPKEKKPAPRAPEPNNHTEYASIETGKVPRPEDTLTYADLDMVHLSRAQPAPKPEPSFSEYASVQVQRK

Test [3] has as its target T2, mouse SIRPα expressed on J774A.1 macrophages (mouse, UniProt P97797 32-513).
T2 sequence (looked up): T1 sequence (looked up)

B1: nS-F-Cyc (peptide)
peptide: CVTELFREGC
HELM: PEPTIDE1{C.V.T.E.L.F.R.E.G.C.[am]}$PEPTIDE1,PEPTIDE1,1:R3-10:R3$$$V2.0; N-terminus assumed
SMILES: CC(C)C[C@@H]1NC(=O)[C@H](CCC(=O)O)NC(=O)[C@H]([C@@H](C)O)NC(=O)[C@H](C(C)C)NC(=O)[C@@H](N)CSSC[C@@H](C(N)=O)NC(=O)CNC(=O)[C@H](CCC(=O)O)NC(=O)[C@H](CCCNC(=N)N)NC(=O)[C@H](Cc2ccccc2)NC1=O
B1: in test [1], the “increase in THP-1 macrophage phagocytosis of opsonized RBCs relative to nS-wt” value is roughly 25% and the “maximum phagocytosis of opsonized RBCs by THP-1 macrophages” value (shortened to “maximum phagocytosis of opsonized RBCs”) was roughly 25%. For the same molecule, the “maximum phagocytosis of opsonized B16 cells by mouse BMDMs” value (from here on “maximum phagocytosis … by mouse BMDMs”) in test [2] is roughly 25%.

VTELFREG-NH2 [nS-F]: in test [1], the “increase in THP-1 macrophage phagocytosis of opsonized RBCs relative to nS-wt” value was roughly 25% and the “maximum phagocytosis of opsonized RBCs” value was roughly 25%. Also, the “phagocytosis of opsonized RBCs by J774A.1 macrophages, relative to nS-X” value in test [3] is 3 fold. Further, the “maximum phagocytosis … by mouse BMDMs” value in test [2] was roughly 25%.

B2: nS-FF, (VTELFREG-PEG5)2-K (peptide)
peptide: VTELFREG
chain: K
modifications: not fully specified; core Lys carrying one PEG5-peptide arm on each of its two amines; C-terminal amide; C-terminus joined through a PEG5 linker to one of the two amines of the core Lys
As for B2, in test [1], the “activity relative to nS-wt in phagocytosis of opsonized RBCs” value is greater than 100 fold and the “increase in phagocytic macrophages relative to anti-CD47 on opRBC” value is roughly 10%.

As for VTELTREG-NH2 [nS-wt (nano-Self wild-type peptide)], the “fold decrease in effective activity in the mouse macrophage phagocytosis assay relative to the human assay” value in test [3] was roughly 100 fold.

As to CVELTREGC-NH2 (disulfide 1-9; not fully specified) [nS-Cyc (cyclic nano-Self peptide)], the “maximum phagocytosis of opsonized RBCs” value in test [1] was roughly 25%. Moreover, in test [2], the “maximum phagocytosis … by mouse BMDMs” value is roughly 25%.
